Screen value data for 2 variants are collected here from PMC5700101.

The chains are these.
B1: Luc-KD (KD–IDL of Polo, amino acids 1–349, N-terminally fused to RLucII), KD^WT [Drosophila] / PBD–GFP (PBD of Polo, amino acids 350–576, C-terminally fused to GFP10) [Drosophila] (parent)
chain 1: MAAKPEDKSTDIPDRLVDINQRKTYKRMRFFGKGGFAKCYEIIDVETDDVFAGKIVSKKLMIKHNQKEKTAQEITIHRSLNHPNIVKFHNYFEDSQNIYIVLELCKKRSMMELHKRRKSITEFECRYYIYQIIQGVKYLHDNRIIHRDLKLGNLFLNDLLHVKIGDFGLATRIEYEGERKKTLCGTPNYIAPEILTKKGHSFEVDIWSIGCVMYTLLVGQPPFETKTLKDTYSKIKKCEYRVPSYLRKPAADMVIAMLQPNPESRPAIGQLLNFEFLKGSKVPMFLPSSCLTMAPRIGSNDTIEDSMHRKPLMEMNGIRPDDTRLESTFLKANLHDAITASAQVCRHSE
chain 2: DYRSDIESLYQQLTNLINGKPRILQGNLGDENTDPAAQPLFWISKWVDYSDKYGFGYQLCDEGIGVMFNDTTKLILLPNQINVHFIDKDGKETYMTTTDYCKSLDKKMKLLSYFKRYMIEHLVKAGANNVNIESDQISRMPHLHSWFRTTCAVVMHLTNGSVQLNFSDHMKLILCPRMSAITYMDQEKNFRTYRFSTIVENGVSKDLYQKIRYAQEKLRKMLEKMFT

In one experiment the parent is B1. The experiment is described as follows: BRET. The settings on record: with PBD–GFP (PBD of Polo, amino acids 350–576, C-terminally fused to GFP10) [Drosophila]; live HEK293T cells; fixed amount of Luc-KD vector, increasing PBD–GFP vector; Map205 fragment co-transfected; p-value 0.4037; parent: 0.197. On the technique in general: In BRET a luciferase serves as donor, and the signal depends on an acceptor being close.
chain 1 T182A: the screen value turned out to be 0.148 GFP/Luc.

Still in this experiment, the particulars now being: with PBD–GFP (PBD of Polo, amino acids 350–576, C-terminally fused to GFP10) [Drosophila]; live HEK293T cells; fixed amount of Luc-KD vector, increasing PBD–GFP vector; Map205 fragment co-transfected; p-value 0.0374; parent: 0.197.
Regarding chain 1 T182D, the screen value was 0.412 GFP/Luc.
